Test results from patent US12083134B2, “Anacardic acid for neural repair” (Vanderbilt University, priority 2018, dated 2024).

Key:
MBP in OPCs = test: Western blot of MBP expression in OPC cultures treated with IL-33; format: cell-based, rat; details: OPCs treated with IL-33
Description: (§1) FIG. 7A provides Western blot analysis of MPB expression in OPC cultures treated with IL-33. FIG. 7B provides qRT-PCR analysis showing the gene expression of transcription elements that bind to the MPB promoter region and major myelin genes treated with IL-33. T3 is the thyroid hormone internal positive control.
(§2) The importance of IL-33 as an inducer of a number of myelin genes has been shown. […] The expression of MBP, myelin oligodendrocyte glycoprotein (Mog), and proteolipoprotien (Plp) along with mRNAs of Purα, Sox10, and Sp-1 in OPCs cultured with IL-33 was quantified. Purα, Sox10, and Sp-1 are transcription elements that bind to the promoter region of MBP to initiate MBP gene expression.

[1] = tested on: MBP, Mog, Plp, Purα, Sox10, Sp-1 in OPCs; test: qRT-PCR of myelin genes and MBP promoter transcription elements in OPCs cultured with IL-33; format: cell-based, rat
Description: as §1, §2

OPCs = test: Maturation of OPCs cultured with IL-33 (O4 and MBP expressing cells); format: cell-based, rat
Description: The graphs to the right show the quantitation of O4 and MBP.
The formation of CNS myelin is dependent on the differentiation and maturation of OPCs. The process of maturation is well recognized both in vitro and in vivo. Immature OPCs express the receptor for platelet derived growth factor (PDGFR) and also express proteins that are recognized by antibody A2B5, anti O4, and anti Olig2 antibodies. As oligodendrocytes mature they lose their reactivity to A2B5, PDGFR, and Olig 2 and they begin to express myelin proteins including MBP. The degree of maturation can be assessed by determining the percentage of cells expressing early lineage markers such as O4 and the later markers such as MBP. The expression of O4 and MBP in OPCs cultured for 4 and 14 days in the presence or absence of IL-33 was determined. […] The increase seen with IL-33 was similar to that seen with AA.

[2] = tested on: dorsal root ganglia-OPC co-cultures; test: In vitro myelination of axons in dorsal root ganglia-OPC co-cultures with IL-33; format: cell-based; details: DRG-OPC co-cultures, rat rIL-33 10 ng/ml, 16 days
Description: FIG. 9 provides images showing the myelination of dorsal root ganglion axons. The arrows point to the longer segments of myelinated internodes in cultures with added IL-33 (20×).
In preliminary studies, in vitro myelination of axons in the presence of IL-33 using dorsal root ganglia-OPC co-cultures was examined. Dorsal root ganglions (DRGs) were dissected from postnatal day 2 (P2) rat pups and cultured by established methods. Once the OPCs attached to the plates, they were treated with rat rIL-33 (10 ng/ml) for 16 days. At the end of the experiment, cells were stained with tubulin β for axons and MBP for myelin forming oligodendrocytes. Quantitation of myelin in axons was done using image analysis and the amount of myelin around the axons was determined. […] When compared to vehicle treated controls, there was an 18% increase in MBP in cultures treated with IL-33.

B1: IL-33: recombinant cytokine IL-33 (rat rIL-33) added exogenously to OPC cultures (protein, UniProt Q66H70 1-264, looked up)
Interleukin-33: MRPRMKYSNSKISPAKCDSTSGRALVPPCKITRSQQKTKDICHVYCMRLRSGLTIRKETCYFGKEPAKRYSLKSGSKHEGRLSTCLPDSRKRSLLGSIQAFAASVDTLSIQGTSLLTESCALSTYNDQSVSFVLENGCYVINVEDCGKNQEKDKVLLRYYESSFPAQSGDGVDGKKLMVNMSPIKDTDIWLNANDKDYSVELQKGDVSPPDQAFFVLHKKSSDFVSFECKNLPGTYIGVKDNQLALVEENDESCNNIMFKLSKM
MBP in OPCs
  induction of MBP: 26%
[1]
  induced expression of MBP: 4.5 fold
  induced expression of Mog: 3.8 fold
  induced expression of PLP: 2.3 fold
  induced expression of Purα: 2.1 fold
  induced expression of Sox10: 3.9 fold
  induced expression of Sp1: 2.2 fold
OPCs; OPCs cultured with IL-33, 4 days
  increase in O4 expressing cells vs normal growth medium: 2.3 fold
OPCs; OPCs cultured with IL-33, 14 days
  formation of mature oligodendrocytes expressing MBP: increased formation of mature oligodendrocytes
[2]
  increase in MBP vs vehicle treated controls: 18%
